Test results as given in article PMC6693564, “RGG-motif self-association regulates eIF4G-binding translation repressor protein Scd6” (RNA Biology, 2019).
One block for each binder: values may come before it.

What was measured:
[1] = biological target: T1, GSTScd6 (recombinant) (yeast, UniProt P45978 1-349); experiment: pull-down; 450 nM purified proteins with glutathione sepharose beads, 2 h at 4°C, 50mM HEPES pH7, 100mM NaCl, 1mM DTT, 2mM MnCl2, 2mM MgCl2, 1% Triton-X100, 10% glycerol, 0.25mg/ml RNase A, 10mg/ml BSA; GST fusion as bait; anti-FLAG blot; for Figure 5e Scd6FLAG first incubated with Hmt1 with or without SAM; conditions: both partners purified
T1 construct: Scd6, yeast; also called full-length GSTScd6; source: E. coli BL21, purified (glutathione sepharose)
T1 sequence (looked up): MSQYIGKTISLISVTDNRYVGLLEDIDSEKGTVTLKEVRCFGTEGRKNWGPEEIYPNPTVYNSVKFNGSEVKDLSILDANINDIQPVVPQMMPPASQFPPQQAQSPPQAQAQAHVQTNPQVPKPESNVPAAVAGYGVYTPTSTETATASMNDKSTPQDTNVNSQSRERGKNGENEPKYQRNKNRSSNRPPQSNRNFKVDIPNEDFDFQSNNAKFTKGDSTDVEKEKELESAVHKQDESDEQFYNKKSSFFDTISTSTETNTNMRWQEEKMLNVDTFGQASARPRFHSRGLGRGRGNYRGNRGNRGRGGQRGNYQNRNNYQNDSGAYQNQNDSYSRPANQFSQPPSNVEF

[2] = biological target: the molecule itself; experiment: SEC; Sephacryl S-200 HR (45 ml, manual), 1 mg protein in 100 µl loaded, 20mM HEPES-KOH pH7.6, 100mM KCl, 10% glycerol; standards 200, 150, 66, 29 kDa
[3] = biological target: T2, HisSbp1FLAG (recombinant) (yeast, UniProt P10080 1-294); experiment: pull-down; FLAG pull-down of purified Sbp1FLAG with purified Sbp1GFP or Sbp1GFPΔRGG in the presence of RNase A; 450 nM proteins; blots with anti-GFP and anti-FLAG; conditions: both partners purified
T2 construct: Sbp1, yeast; also called full-length Sbp1FLAG; source: E. coli XL1-Blue, purified (Ni-NTA)
T2 sequence (looked up): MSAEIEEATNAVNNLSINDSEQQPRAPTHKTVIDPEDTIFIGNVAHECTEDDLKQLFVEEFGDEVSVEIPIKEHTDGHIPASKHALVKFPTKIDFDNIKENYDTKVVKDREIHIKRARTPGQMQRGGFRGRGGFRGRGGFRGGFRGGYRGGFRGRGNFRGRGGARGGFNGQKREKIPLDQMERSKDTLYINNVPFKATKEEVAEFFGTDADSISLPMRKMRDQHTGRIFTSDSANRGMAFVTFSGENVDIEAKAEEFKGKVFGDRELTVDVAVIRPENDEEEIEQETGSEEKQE

binding result [1]: binds
B1: in vitro methylated Scd6FLAG (natural protein, yeast, UniProt P45978 1-349, looked up)
chain: T1 sequence (looked up)
modifications: arginine methylation by Hmt1 in vitro (stained by mono-methylarginine specific antibody); sites not given
notes: Scd6, yeast; Same protein as m4 after methylation; source: E. coli BL21, purified, then methylated in vitro by incubating with Hmt1 and SAM

B2: HisScd6FLAG (recombinant) (natural protein, yeast, UniProt P45978 1-349, looked up)
chain: T1 sequence (looked up)
notes: Scd6, yeast; predicted molecular mass of the purified protein about 41.5 kDa; also called purified Scd6; source: E. coli BL21, purified (HisTrap HP, HiTrap Heparin HP)
stoichiometry N [2]: 2

binding result [3]: binds
B3: HisSbp1GFP (recombinant) (natural protein, yeast, UniProt P10080 1-294, looked up)
chain: T2 sequence (looked up)
notes: Sbp1, yeast, wild type; source: E. coli XL1-Blue, purified (Ni-NTA)
